In patent publication US20230312689A1 (NATIONAL UNIVERSITY CORPORATION KUMAMOTO UNIVERSITY, published 2023):

How the values were obtained:
[1] = target: SARS-CoV-2 spike protein, European type SD614G (SARS-CoV-2, UniProt P0DTC2 14-1273); assay: cell-based or functional assay
[2] = target: spike protein of SARS-CoV-2 mutant strain B.1.351 (SARS-CoV-2); assay: cell-based or functional assay

| Binder | neutralizing activity (IC50 value), pseudovirus, 293F/ACE2/TMPRSS2 cells [1] [µg/mL] | neutralizing activity (IC50 value), pseudovirus, Caco-2 cells [1] [µg/mL] | neutralizing activity (IC50 value), pseudovirus, Calu-3 cells [1] [µg/mL] | IC50, pseudovirus neutralization, 293FT/DSP/ACE2/TMPRSS2 cells [2] [µg/mL] |
| --- | --- | --- | --- | --- |
| CSSA10-121 (antibody, V domains shown) VH: EVQLVESGGGLIQPGGSLRLSCAASGLTVSRNYMSWVRQAPGRGLEWVSLIYSGGSTYYADSVKGRFTISRDSSKNTLYLQMNSLRAEDTAVYYCARPIVGARAGMDVWGQGTTVTVSS VL: DIRMTQSPSSLSASVGDRVTITCQASQDISNYLNWYQQKPGKAPKLLIYDASNLETGVPSRFSGSGSGTDFTFTISSLQPEDIATYYCQQYDNLPVTFGQGTRLEIK | 0.018 | 0.015 | 0.12 |  |
| CTMA9-105 (antibody, V domains shown) VH: EVQLVESGGGLIQPGGSLRLSCAASGITVSSNYMSWVRQAPGKGLEWVSLIYSGGSTYYADSVKGRFTISRDNSKNTLYLQMNSLRAEDTAVYYCARDLEEAGGMDVWGQGTTVTVSS VL: DIVMTQSPGTLSLSPGERATLSCRASQSVPSIYLAWYQQRPGQAPRLLIYGASSRATGIPDRFSGSGSGTDFTLTISRLEPEDFAVYYCQQYGSSPGTFGQGTKVEIK | 0.0035 | 0.00092 | 0.0019 | 0.021 |
